Experimental data reported in PMC10643566, “Insights into the mechanism of SARS-CoV-2 main protease autocatalytic maturation from model precursors” (Communications Biology, 2023).

Legend:
[1] = molecular target: mature MPro^E290A (SARS-CoV-2); experiment: enzyme kinetics (K_dimer from kcat/Km and the slope of rate vs the square of the protein concentration); FRET substrate at 200 µM, buffer B (25 mM Tris-HCl, pH 7, 50 mM NaCl, 1 mM TCEP), 28 °C; kcat/Km determined with equimolar GC373; dimer to monomers
[2] = molecular target: mature MPro^R298A (SARS-CoV-2); experiment: as above

Substance	Kd [1]	Kd [2]
mature MPro^E290A (enzyme)	353 µM	–
mature MPro^R298A (enzyme)	–	7.13 µM
